Measured values as given in publication PMC9482650, “Quantitative fragmentomics allow affinity mapping of interactomes” (Nature Communications, 2022).

Tests used:
Assay in all cases: holdup assay
Parameters in all cases: key: below the threshold = too weak to quantify, mostly under pKd 3.1 to 4
PDLIM1, O00151 = biological target: PDLIM1, O00151
NHERF3_3, Q5T2W1 = biological target: T1, NHERF3_3, Q5T2W1
T1 sequence (Q5T2W1 238-333, limits assumed, looked up): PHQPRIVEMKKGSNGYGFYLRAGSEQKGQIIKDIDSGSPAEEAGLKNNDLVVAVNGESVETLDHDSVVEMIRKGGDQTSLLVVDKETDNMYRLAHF

Inadl_8, Q8NI35 = biological target: Inadl_8, Q8NI35
Sequence of Inadl_8, Q8NI35 (Q8NI35 1425-1530): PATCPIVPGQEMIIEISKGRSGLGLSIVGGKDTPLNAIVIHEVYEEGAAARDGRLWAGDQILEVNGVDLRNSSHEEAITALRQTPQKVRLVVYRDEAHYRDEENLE

DLG2_2, Q15700 = biological target: DLG2_2, Q15700
Sequence of DLG2_2, Q15700 (Q15700 189-283): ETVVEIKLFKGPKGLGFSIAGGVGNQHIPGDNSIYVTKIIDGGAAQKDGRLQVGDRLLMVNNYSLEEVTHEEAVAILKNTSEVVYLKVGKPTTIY

TIAM2, Q8IVF5 = biological target: T2, TIAM2, Q8IVF5
T2 sequence (Q8IVF5 885-986, limits assumed, looked up): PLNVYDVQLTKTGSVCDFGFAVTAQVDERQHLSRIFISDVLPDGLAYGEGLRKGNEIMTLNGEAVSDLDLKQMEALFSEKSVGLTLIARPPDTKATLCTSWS

DLG1_1, Q12959 = biological target: DLG1_1, Q12959
ARHGAP21, Q5T5U3 = biological target: T3, ARHGAP21, Q5T5U3
T3 sequence (Q5T5U3 45-169, limits assumed, looked up): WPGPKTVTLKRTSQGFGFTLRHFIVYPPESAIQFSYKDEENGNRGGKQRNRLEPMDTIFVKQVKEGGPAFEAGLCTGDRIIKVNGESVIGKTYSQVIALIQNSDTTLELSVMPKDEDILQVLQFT

DFNB31_3, Q9P202 = biological target: T4, DFNB31_3, Q9P202
T4 sequence (Q9P202 811-907, limits assumed, looked up): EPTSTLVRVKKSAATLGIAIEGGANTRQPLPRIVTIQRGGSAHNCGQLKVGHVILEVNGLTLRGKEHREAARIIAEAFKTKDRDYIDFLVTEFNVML

APBA2_2, Q99767 = biological target: T5, APBA2_2, Q99767
T5 sequence (Q99767 654-744, limits assumed, looked up): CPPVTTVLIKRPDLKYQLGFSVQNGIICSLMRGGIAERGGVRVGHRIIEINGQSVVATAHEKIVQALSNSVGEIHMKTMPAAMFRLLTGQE

Inadl_10, Q8NI35 = biological target: Inadl_10, Q8NI35
Sequence of Inadl_10, Q8NI35 (Q8NI35 1673-1763): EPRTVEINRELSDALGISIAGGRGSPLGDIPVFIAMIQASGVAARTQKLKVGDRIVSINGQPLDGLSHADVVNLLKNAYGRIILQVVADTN

Inadl_6, Q8NI35 = biological target: Inadl_6, Q8NI35
Sequence of Inadl_6, Q8NI35 (Q8NI35 1058-1167): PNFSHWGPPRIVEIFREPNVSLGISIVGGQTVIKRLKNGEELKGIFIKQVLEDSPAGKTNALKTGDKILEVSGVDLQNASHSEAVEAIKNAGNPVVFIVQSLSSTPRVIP

NHERF4_1, Q86UT5-2 = biological target: NHERF4_1, Q86UT5-2
Sequence of NHERF4_1, Q86UT5-2 (Q86UT5 other isoform, or with tags, fused parts or gaps): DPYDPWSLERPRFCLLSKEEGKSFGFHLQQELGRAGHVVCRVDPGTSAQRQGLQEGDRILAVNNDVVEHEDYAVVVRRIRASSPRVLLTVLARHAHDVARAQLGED

DLG5_1, Q8TDM6 = biological target: DLG5_1, Q8TDM6
Sequence of DLG5_1, Q8TDM6 (Q8TDM6 617-713): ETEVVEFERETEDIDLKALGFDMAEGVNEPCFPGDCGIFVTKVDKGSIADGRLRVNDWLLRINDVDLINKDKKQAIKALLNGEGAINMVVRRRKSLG

RADIL, Q96JH8 = biological target: T6, RADIL, Q96JH8
T6 sequence (Q96JH8 971-1071, limits assumed, looked up): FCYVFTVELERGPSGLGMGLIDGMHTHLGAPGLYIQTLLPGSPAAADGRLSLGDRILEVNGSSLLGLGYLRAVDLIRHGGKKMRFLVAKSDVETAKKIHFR

GRID2IP_1, A4D2P6 = biological target: GRID2IP_1, A4D2P6
Sequence of GRID2IP_1, A4D2P6 (A4D2P6 1-87): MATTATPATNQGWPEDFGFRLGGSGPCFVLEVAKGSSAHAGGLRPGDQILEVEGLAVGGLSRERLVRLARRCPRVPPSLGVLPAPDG

NHERF3_1, Q5T2W1 = biological target: T7, NHERF3_1, Q5T2W1
T7 sequence (Q5T2W1 4-100, limits assumed, looked up): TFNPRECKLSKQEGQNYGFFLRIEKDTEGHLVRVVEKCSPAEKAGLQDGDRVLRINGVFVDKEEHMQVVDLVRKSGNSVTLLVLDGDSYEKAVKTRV

LDB3, O75112 = biological target: LDB3, O75112
Sequence of LDB3, O75112 (O75112 1-94): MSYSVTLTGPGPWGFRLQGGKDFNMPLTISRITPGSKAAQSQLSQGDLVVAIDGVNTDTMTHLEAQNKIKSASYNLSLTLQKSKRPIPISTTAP

DLG1_2, Q12959 = biological target: DLG1_2, Q12959
GRASP, Q7Z6J2 = biological target: GRASP, Q7Z6J2
Sequence of GRASP, Q7Z6J2 (Q7Z6J2 96-193): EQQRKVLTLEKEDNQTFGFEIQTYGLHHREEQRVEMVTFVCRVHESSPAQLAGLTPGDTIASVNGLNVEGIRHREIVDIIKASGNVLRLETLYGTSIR

Inadl_2, Q8NI35 = biological target: Inadl_2, Q8NI35
Sequence of Inadl_2, Q8NI35 (Q8NI35 238-335): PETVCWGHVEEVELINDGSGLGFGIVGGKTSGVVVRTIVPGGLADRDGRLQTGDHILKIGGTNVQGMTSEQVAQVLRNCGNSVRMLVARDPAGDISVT

MAGI2_2, Q86UL8 = biological target: MAGI2_2, Q86UL8
Sequence of MAGI2_2, Q86UL8 (Q86UL8 410-522): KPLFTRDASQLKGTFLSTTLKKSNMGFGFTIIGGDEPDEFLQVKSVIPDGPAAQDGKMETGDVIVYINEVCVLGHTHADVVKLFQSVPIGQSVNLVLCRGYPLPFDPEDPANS

PDZRN4_1, Q6ZMN7 = biological target: PDZRN4_1, Q6ZMN7
Sequence of PDZRN4_1, Q6ZMN7 (Q6ZMN7 213-318): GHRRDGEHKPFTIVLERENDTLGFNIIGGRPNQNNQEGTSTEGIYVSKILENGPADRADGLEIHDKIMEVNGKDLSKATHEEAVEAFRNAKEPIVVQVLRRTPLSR

MPP2, Q14168 = biological target: T8, MPP2, Q14168
T8 sequence (Q14168 180-250, limits assumed, looked up): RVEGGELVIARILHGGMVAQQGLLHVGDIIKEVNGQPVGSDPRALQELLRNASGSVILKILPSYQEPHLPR

ARHGEF12, Q9NZN5-2 = biological target: ARHGEF12, Q9NZN5-2
Sequence of ARHGEF12, Q9NZN5-2 (Q9NZN5 other isoform, or with tags, fused parts or gaps): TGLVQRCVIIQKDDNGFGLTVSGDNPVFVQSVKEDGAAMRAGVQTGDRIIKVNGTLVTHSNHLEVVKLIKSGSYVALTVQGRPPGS

RHPN1, Q8TCX5 = biological target: T9, RHPN1, Q8TCX5
T9 sequence (Q8TCX5 508-602, limits assumed, looked up): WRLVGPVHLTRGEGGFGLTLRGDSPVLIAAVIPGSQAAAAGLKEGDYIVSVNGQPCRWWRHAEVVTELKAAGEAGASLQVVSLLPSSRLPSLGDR

LIN7B, Q9HAP6 = biological target: T10, LIN7B, Q9HAP6
T10 sequence (Q9HAP6 88-185, limits assumed, looked up): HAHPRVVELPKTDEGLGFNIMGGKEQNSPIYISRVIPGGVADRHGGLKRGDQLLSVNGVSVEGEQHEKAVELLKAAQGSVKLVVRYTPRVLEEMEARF

GIPC2, Q8TF65 = biological target: GIPC2, Q8TF65
Sequence of GIPC2, Q8TF65 (Q8TF65 112-203): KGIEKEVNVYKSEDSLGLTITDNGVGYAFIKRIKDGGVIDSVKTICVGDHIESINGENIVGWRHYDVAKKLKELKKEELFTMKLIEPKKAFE

[1] = plain residues with an end cap or a label only (N-terminal biotin on a linker: ado-ado)
[2] = plain residues with an end cap or a label only (N-terminal biotin on a linker: ahx)
[3] = plain residues with an end cap or a label only (N-terminal biotin on a linker: ttds)

Sequence of PDLIM1, O00151 (O00151 1-87): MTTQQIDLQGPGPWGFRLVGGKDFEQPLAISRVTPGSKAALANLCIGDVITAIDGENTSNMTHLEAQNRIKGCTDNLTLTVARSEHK

Binder: SVVSERISSV [HTR2C, P28335]
- pKd (PDLIM1, O00151; [1]): below the threshold
- pKd (NHERF3_3, Q5T2W1; [1]): below the threshold
- pKd (Inadl_8, Q8NI35; [1]): 5.14
- pKd (DLG2_2, Q15700; [1]): 4.4
- pKd (TIAM2, Q8IVF5; [1]): 3.88
- pKd (DLG1_1, Q12959; [1]): 4.07
- pKd (ARHGAP21, Q5T5U3; [1]): below the threshold
- pKd (DFNB31_3, Q9P202; [1]): 3.76
- pKd (APBA2_2, Q99767; [1]): below the threshold
- pKd (Inadl_10, Q8NI35; [1]): below the threshold
- pKd (Inadl_6, Q8NI35; [1]): below the threshold
- pKd (NHERF4_1, Q86UT5-2; [1]): 3.72
- pKd (DLG5_1, Q8TDM6; [1]): below the threshold
- pKd (RADIL, Q96JH8; [1]): 3.74
- pKd (GRID2IP_1, A4D2P6; [1]): below the threshold
- pKd (NHERF3_1, Q5T2W1; [1]): below the threshold
- pKd (LDB3, O75112; [1]): below the threshold
- pKd (DLG1_2, Q12959; [1]): 4.74
- pKd (GRASP, Q7Z6J2; [1]): 4.55
- pKd (Inadl_2, Q8NI35; [1]): below the threshold
- pKd (MAGI2_2, Q86UL8; [1]): 3.77
- pKd (PDZRN4_1, Q6ZMN7; [1]): below the threshold
- pKd (MPP2, Q14168; [1]): below the threshold
- pKd (ARHGEF12, Q9NZN5-2; [1]): 4.18
- pKd (RHPN1, Q8TCX5; [1]): 4.65
- pKd (LIN7B, Q9HAP6; [1]): 3.7
- pKd (GIPC2, Q8TF65; [1]): below the threshold

Binder: EKLSSIESDV [GRIN2B, Q13224]
- pKd (PDLIM1, O00151; [2]): 3.71
- pKd (NHERF3_3, Q5T2W1; [2]): below the threshold
- pKd (Inadl_8, Q8NI35; [2]): below the threshold
- pKd (DLG2_2, Q15700; [2]): below the threshold
- pKd (TIAM2, Q8IVF5; [2]): 3.71
- pKd (DLG1_1, Q12959; [2]): 4.3
- pKd (ARHGAP21, Q5T5U3; [2]): 3.71
- pKd (DFNB31_3, Q9P202; [2]): below the threshold
- pKd (APBA2_2, Q99767; [2]): below the threshold
- pKd (Inadl_10, Q8NI35; [2]): below the threshold
- pKd (Inadl_6, Q8NI35; [2]): below the threshold
- pKd (NHERF4_1, Q86UT5-2; [2]): 3.53
- pKd (DLG5_1, Q8TDM6; [2]): below the threshold
- pKd (RADIL, Q96JH8; [2]): below the threshold
- pKd (GRID2IP_1, A4D2P6; [2]): below the threshold
- pKd (NHERF3_1, Q5T2W1; [2]): below the threshold
- pKd (LDB3, O75112; [2]): below the threshold
- pKd (DLG1_2, Q12959; [2]): 4.97
- pKd (GRASP, Q7Z6J2; [2]): below the threshold
- pKd (Inadl_2, Q8NI35; [2]): below the threshold
- pKd (MAGI2_2, Q86UL8; [2]): below the threshold
- pKd (PDZRN4_1, Q6ZMN7; [2]): below the threshold
- pKd (MPP2, Q14168; [2]): below the threshold
- pKd (ARHGEF12, Q9NZN5-2; [2]): 3.68
- pKd (RHPN1, Q8TCX5; [2]): 4.73
- pKd (LIN7B, Q9HAP6; [2]): below the threshold
- pKd (GIPC2, Q8TF65; [2]): 4.33

Binder: MERLRVETDV [ARHGEF16, Q5VV41]
- pKd (PDLIM1, O00151; [3]): 4
- pKd (NHERF3_3, Q5T2W1; [3]): below the threshold
- pKd (Inadl_8, Q8NI35; [3]): 3.53
- pKd (DLG2_2, Q15700; [3]): 5.21
- pKd (TIAM2, Q8IVF5; [3]): below the threshold
- pKd (DLG1_1, Q12959; [3]): 5.01
- pKd (ARHGAP21, Q5T5U3; [3]): 3.63
- pKd (DFNB31_3, Q9P202; [3]): below the threshold
- pKd (APBA2_2, Q99767; [3]): below the threshold
- pKd (Inadl_10, Q8NI35; [3]): below the threshold
- pKd (Inadl_6, Q8NI35; [3]): below the threshold
- pKd (NHERF4_1, Q86UT5-2; [3]): below the threshold
- pKd (DLG5_1, Q8TDM6; [3]): below the threshold
- pKd (RADIL, Q96JH8; [3]): below the threshold
- pKd (GRID2IP_1, A4D2P6; [3]): below the threshold
- pKd (NHERF3_1, Q5T2W1; [3]): below the threshold
- pKd (LDB3, O75112; [3]): below the threshold
- pKd (DLG1_2, Q12959; [3]): 5.5
- pKd (GRASP, Q7Z6J2; [3]): below the threshold
- pKd (Inadl_2, Q8NI35; [3]): below the threshold
- pKd (MAGI2_2, Q86UL8; [3]): 4.38
- pKd (PDZRN4_1, Q6ZMN7; [3]): 3.83
- pKd (MPP2, Q14168; [3]): below the threshold
- pKd (ARHGEF12, Q9NZN5-2; [3]): 4.22
- pKd (RHPN1, Q8TCX5; [3]): 4.18
- pKd (LIN7B, Q9HAP6; [3]): below the threshold
- pKd (GIPC2, Q8TF65; [3]): 3.75

Binder: HIVEALETDV [PBK, Q96KB5]
- pKd (PDLIM1, O00151; [3]): 3.91
- pKd (NHERF3_3, Q5T2W1; [3]): below the threshold
- pKd (Inadl_8, Q8NI35; [3]): below the threshold
- pKd (DLG2_2, Q15700; [3]): 5.28
- pKd (TIAM2, Q8IVF5; [3]): below the threshold
- pKd (DLG1_1, Q12959; [3]): 5.01
- pKd (ARHGAP21, Q5T5U3; [3]): 3.91
- pKd (DFNB31_3, Q9P202; [3]): below the threshold
- pKd (APBA2_2, Q99767; [3]): below the threshold
- pKd (Inadl_10, Q8NI35; [3]): below the threshold
- pKd (Inadl_6, Q8NI35; [3]): 3.78
- pKd (NHERF4_1, Q86UT5-2; [3]): below the threshold
- pKd (DLG5_1, Q8TDM6; [3]): below the threshold
- pKd (RADIL, Q96JH8; [3]): below the threshold
- pKd (GRID2IP_1, A4D2P6; [3]): below the threshold
- pKd (NHERF3_1, Q5T2W1; [3]): below the threshold
- pKd (LDB3, O75112; [3]): below the threshold
- pKd (DLG1_2, Q12959; [3]): 5.66
- pKd (GRASP, Q7Z6J2; [3]): below the threshold
- pKd (Inadl_2, Q8NI35; [3]): below the threshold
- pKd (MAGI2_2, Q86UL8; [3]): below the threshold
- pKd (PDZRN4_1, Q6ZMN7; [3]): below the threshold
- pKd (MPP2, Q14168; [3]): below the threshold
- pKd (ARHGEF12, Q9NZN5-2; [3]): 4.23
- pKd (RHPN1, Q8TCX5; [3]): 4.91
- pKd (LIN7B, Q9HAP6; [3]): below the threshold
- pKd (GIPC2, Q8TF65; [3]): 4.55
